# Data: the supplement of paper PMC7125110
# ± gives the standard error. Variants at the floor of the assay were thinned out.
# B1: glmS ribozyme (parent)
# chain: AUAAAAGCGCCAGAACUACAGAAAUGUAGUUGACGAGGAGGAGGUUUAUCGAAUUUUCGGCGGAUGCCUCCAAA
# Experiments:
# Conditions in all cases: with glucosamine-6-phosphate
# [1] = variants of: B1; assay: self-cleavage kobs at 160 uM GlcN6P; higher = faster cleavage; RNA array
# How it was run: (§1)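 Glucosamine-6-phosphate in HEPES/KCl/Mg(OAc)2 buffer, at 40 μM to 10 mM, was flowed over barcoded ribozyme variants transcribed in situ by E. coli RNA polymerase on sequenced MiSeq chips. Tracking was through a hybridised Cy3 probe at 37 °C. kobs, kcat and KM came from exponential decay fits and weighted Michaelis–Menten fits of normalised per-tile medians.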
# [2] = variants of: B1; assay: self-cleavage kobs at 640 uM GlcN6P; higher = faster cleavage; RNA array
# How it was run: as §1
# [3] = variants of: B1; assay: self-cleavage kobs at 2500 uM GlcN6P; higher = faster cleavage; RNA array
# How it was run: as §1
# [4] = variants of: B1; assay: self-cleavage kobs at 10000 uM GlcN6P; higher = faster cleavage; RNA array
# How it was run: as §1
Variant,self-cleavage kobs at 160 uM GlcN6P [1] [s⁻¹],self-cleavage kobs at 640 uM GlcN6P [2] [s⁻¹],self-cleavage kobs at 2500 uM GlcN6P [3] [s⁻¹],self-cleavage kobs at 10000 uM GlcN6P [4] [s⁻¹]
G38A A64G C67U,< 1e-05,,,
A6G G9A,< 1e-05,< 1e-05,< 1e-05,< 1e-05
G9A C10U G13A A52C,< 1e-05,< 1e-05,< 1e-05,
G7U G37U,< 1e-05,,,< 1e-05
G38C G63A,< 1e-05,< 1e-05,< 1e-05,
G41U G59A,< 1e-05,< 1e-05,< 1e-05,
U30C A36G U57C,< 1e-05,< 1e-05,< 1e-05,
A6U C8U C70U,< 1e-05,,< 1e-05,< 1e-05
C8A A12U C67U,< 1e-05,< 1e-05,< 1e-05,
C11U G51U A53G,< 1e-05,,,
G35A C58G,< 1e-05,,< 1e-05,
C11A A14C U31G U65G,< 1e-05,,,2.62e-05 ± 1.2e-05
G44U C61A C67U C70G,< 1e-05,< 1e-05,< 1e-05,
C10U C16A U65A,< 1e-05,< 1e-05,< 1e-05,< 1e-05
U55G C68A,0.000151 ± 6.4e-05,6.91e-05 ± 2.2e-05,9.69e-05 ± 1.8e-05,2.8e-05 ± 1.4e-05
A52C U65A,< 1e-05,< 1e-05,< 1e-05,< 1e-05
G7C G32C G41U U47G U56C,< 1e-05,< 1e-05,< 1e-05,
U30A A48C C67G,< 1e-05,,,
C34A A42U,< 1e-05,< 1e-05,< 1e-05,< 1e-05
G29C A33C C61A,< 1e-05,,,
U30G U54G U56G,0.00021 ± 5.7e-05,0.000994 ± 0.00019,0.00255 ± 0.00053,
G13A U46G A48G G59A,< 1e-05,,< 1e-05,< 1e-05
C8G G13C U30G C68G C70G,0.000998 ± 0.00044,,,
